Here are results for one substance from US8361510B2, “Nanogels for cellular delivery of therapeutics” (Georgia Tech Research Corporation, priority 2008, dated 2013).

Series [1] in a line: siRNA encapsulation in nanogels ("breathing-in" loading, UV-vis of supernatant). It counts as physicochemical. The note with it: lyophilized nanogels reswollen in siRNA solution. From the text:
In vitro siRNA encapsulation and release. Our group employs a “breathing-in” method for the encapsulation of various macromolecules within nanogels. In a typical method, lyophilized nanogels are resuspended in an aqueous solution containing the macromolecule to be loaded. Importantly, this is done using a loading solution volume that is almost completely imbibed by the swelling nanogels. In this fashion, the hydrogel network imbibes the payload with high efficiency and without relying on simple equilibrium partitioning to determine the maximum loading level. […]
The encapsulation efficiency was determined via ultracentrifugation of the nanogel loading solution and measurement of supernatant siRNA concentration by UV-vis spectroscopy (Shimadzu UV-1601). The moles of siRNA in the loading solution (msiRNA, Loading) and in the supernatant (msiRNA, Supernatant) were determined via interpolation from a separately constructed standard curve of absorbance vs. concentration (R^2>0.99). The encapsulation efficiency (EE) of the system could then be calculated through analysis of the amount of siRNA in the loading solution and the remaining moles of siRNA in the supernatant after nanogel swelling was complete, as illustrated by Equation 1 and in similar encapsulation experiments. […]

In a further series the test system is Hey cells. The experiment in a line: Nanogel/siGLO uptake by confocal microscopy, Hey cells. It counts as cell-based. The note with it: Hey cells (high EphA2), 4 h incubation, serum-containing medium. The method, then:
Cell transfection using nanogels. Hey or BG-1 cells were plated onto an 8-well chamber slide (5×10^3 cells/well), and the cells allowed to adhere overnight at 37° C. in a 5% CO2 atmosphere. After washing the wells with PBS and replacing the media, siGLO-loaded/YSA-conjugated nanogels, unloaded YSA-conjugated nanogels, pNIPMAm nanogels, or siGLO only were added to wells. Cells were incubated in each case for 4 h. In experiments where preincubation of ephrin-A1 was used to initiate internalization and degradation of EphA2, ephrin-A1 was added to the media at a final concentration of the ligand of 2 μg/mL. After incubation, the cells were washed with PBS, and the medium replaced. For fixation prior to confocal imaging, the cells were incubated with 2% (v/v) paraformaldehyde for 30 min
Confocal microscopy. A Zeiss LSM510 confocal microscope was used to take cell images. Cells were incubated with nanogels for 4 h. After 4 h, the cells were washed and then fixed on the slide. […]
Following loading with siGLO, nanogels were incubated with either Hey (high EphA2 expression) or BG-1 (low EphA2 expression) cells in order to compare the levels of targeted uptake by ovarian cancer cells. Uptake of the nanogels into the cells was followed using a fluorescent tag (AFA) incorporated into the nanogel core as well as by the fluorescence of the siGLO. […]

Where no end group is shown, it is not given here.

In turn, “YSA-conjugated nanogels: core/shell pNIPMAm nanogels with YSA peptide coupled to shell amines via maleimide (EMCA) (YSAYPDSVPMMSC; also: coupled to nanogel shell amines via maleimide (EMCA))” returned a siRNA encapsulation efficiency in series [1] of 93±1%. The “nanogel uptake (green AFA fluorescence)” value in the series on Hey cells is given as “strong green fluorescence”.
